Test results as given in patent publication US5516515A, “Separation of alpha interferon receptor proteins and antibodies therefor” (priority 1990, dated 1996).

How the values were obtained:
[1] = test system: human HEp-2 cells challenged with vesticular stomatitis virus (Indiana Strain); test: cytopathic effect (CPE) assay of interferon biological (antiviral) activity; assay type: cell-based; details: NIH reference units
Method: Ultrapure natural interferon alpha was prepared by incubating human peripheral blood cultures with Sendai virus. The culture supernatant was purified over an anti-interferon alpha column (NK-2 sepharose). […] The biological activity of interferons alpha, beta and gamma were determined by the cytopathic effect (CPE) assay on human HEp-2 cells challenged with vesticular stomatitis virus (Indiana Strain). All titers were calibrated against the NIH reference standards for alpha (#Ga23-902-503) and gamma (Gg 23-901-530) interferons. All titers are expressed as NIH reference units.

[2] = target: T1, Daudi cell receptor sites (Homo sapiens, UniProt P17181+P48551); test: Competition experiments: displacement of 125I-IFN-alpha-2 from Daudi cells; assay type: binding; details: 100 fold excess of unlabeled IFN
T1 construct: endogenous in cells; host or cells: Daudi (human lymphoblastoid) cells
T1 sequence (P48551 27-515): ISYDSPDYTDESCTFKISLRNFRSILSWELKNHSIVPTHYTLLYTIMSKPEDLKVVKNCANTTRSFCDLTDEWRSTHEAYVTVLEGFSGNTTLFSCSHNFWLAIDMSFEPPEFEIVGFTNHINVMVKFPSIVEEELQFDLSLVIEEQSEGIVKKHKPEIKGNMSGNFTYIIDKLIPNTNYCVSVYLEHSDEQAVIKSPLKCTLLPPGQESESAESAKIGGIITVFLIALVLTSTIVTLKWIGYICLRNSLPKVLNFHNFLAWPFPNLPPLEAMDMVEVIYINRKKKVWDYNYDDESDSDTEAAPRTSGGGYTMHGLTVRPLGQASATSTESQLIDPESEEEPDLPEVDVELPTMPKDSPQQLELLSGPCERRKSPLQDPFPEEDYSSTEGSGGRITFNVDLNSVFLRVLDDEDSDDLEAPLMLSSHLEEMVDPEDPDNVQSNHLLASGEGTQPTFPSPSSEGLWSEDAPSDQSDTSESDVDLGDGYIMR
T1 sequence (P17181 28-557): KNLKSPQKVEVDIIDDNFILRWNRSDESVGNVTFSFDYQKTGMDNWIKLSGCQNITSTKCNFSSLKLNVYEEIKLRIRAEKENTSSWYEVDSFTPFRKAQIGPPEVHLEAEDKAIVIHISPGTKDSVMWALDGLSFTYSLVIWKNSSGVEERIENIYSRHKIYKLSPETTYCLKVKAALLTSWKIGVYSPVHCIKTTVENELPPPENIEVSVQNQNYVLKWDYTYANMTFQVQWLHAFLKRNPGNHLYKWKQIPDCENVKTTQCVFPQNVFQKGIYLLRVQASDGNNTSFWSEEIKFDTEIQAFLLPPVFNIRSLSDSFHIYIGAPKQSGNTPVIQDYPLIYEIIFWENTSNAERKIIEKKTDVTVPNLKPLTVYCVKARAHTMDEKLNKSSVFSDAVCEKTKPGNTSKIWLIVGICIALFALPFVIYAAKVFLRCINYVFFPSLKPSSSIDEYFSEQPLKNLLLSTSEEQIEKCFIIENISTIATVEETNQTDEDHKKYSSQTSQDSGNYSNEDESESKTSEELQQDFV

B1: IFN gamma: Human IFN gamma produced in human peripheral blood cultures containing lymphocytes stimulated with phytohemagglutinin, purified by affinity chromatography (protein, UniProt P01579 24-161, looked up)
Interferon gamma: QDPYVKEAENLKKYFNAGHSDVADNGTLFLGILKNWKEESDRKIMQSQIVSFYFKLFKNFKDDQSIQKSVETIKEDMNVKFFNSNKKKRDDFEKLTNYSVTDLNVQRKAIHELIQVMAELSPAAKTGKRKRSQMLFRG
[1]
  specific activity: 2×10^7 U/rag of protein
[2]
  reduction in the binding of 125I-IFN-alpha2 for Daudi cells: does not compete
